This is an account of results in article doi:10.1101/2022.07.26.501514.

In this test the target is T1, Atg18 wildtype (Autophagy-related protein 18, Saccharomyces cerevisiae) (Saccharomyces cerevisiae), P43601.
T1 chain: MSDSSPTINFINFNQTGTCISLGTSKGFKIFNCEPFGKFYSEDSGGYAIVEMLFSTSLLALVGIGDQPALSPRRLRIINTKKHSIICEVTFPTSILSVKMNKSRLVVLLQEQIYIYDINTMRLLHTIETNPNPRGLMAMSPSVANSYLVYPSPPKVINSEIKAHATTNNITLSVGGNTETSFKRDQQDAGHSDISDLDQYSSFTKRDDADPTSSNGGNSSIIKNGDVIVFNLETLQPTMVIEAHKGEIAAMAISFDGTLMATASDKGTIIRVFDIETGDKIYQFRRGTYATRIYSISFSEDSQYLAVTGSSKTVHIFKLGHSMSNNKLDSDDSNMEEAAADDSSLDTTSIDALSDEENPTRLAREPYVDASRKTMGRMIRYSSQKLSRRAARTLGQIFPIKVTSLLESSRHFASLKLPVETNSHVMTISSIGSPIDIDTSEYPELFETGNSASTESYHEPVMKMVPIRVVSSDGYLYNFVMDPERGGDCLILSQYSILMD
The test is described as follows: single-particle cryo-EM, 2D classification. The conditions noted are these: remark: other sources report otherwise.

B1: Atg18 wildtype (Autophagy-related protein 18, Saccharomyces cerevisiae), P43601 1-500 (natural protein)
chain: T1 chain
B1: the stoichiometry N – broadly, a count of units in the complex or per binding partner – was determined as 2.
